Results as given in patent publication US8188225B2, “Inorganic phosphate assays” (Medical Research Council, priority 2005, dated 2012).
Residue numbers refer to the chain shown, from its start. Numbers in names are those of the source. Where two headings read alike, the source gives them in different places.

How the values were obtained:
[1] = Fluorescence change of labelled PBP on Pi binding; details: for fluorescence increase with Pi: Pi-bound vs Pi-free, typical product, 10 mM PIPES pH 7.0
From the text: Fluorescence spectra were obtained under the same conditions. Excitation was at 555 nm. The fluorescence signals were normalised to 100%, representing the maximum intensity in the presence of Pi.

[2] = Fluorescence titration of labelled PBP with Pi (binding capacity); details: 20° C.
Method: This fluorescence represents the value when approximately Pi-free. The lines shown in FIG. 3 are a best fit to data from 0 to 4 μM added Pi, and a horizontal line.

[3] = Stopped-flow association kinetics of Pi with rhodamine-PBP; assay type: binding
From the text: A stopped-flow apparatus was used to determine association and dissociation kinetics of Pi from rhodamine-PBP.
A representative set of fluorescence traces is shown in FIG. 4A, all normalized to 100% for the initial intensity, but offset by 15% from each other. As the concentration of Pi and the rate increase, a significant proportion of the fluorescence trace is lost in the dead time of the stopped-flow instrument, causing an apparent decrease in intensity.
It is apparent that the rate reaches a limiting high value. This can be interpreted in terms of a two-step mechanism, binding itself (step 1), then a conformation change (step 2):
The fluorescence change occurs in step 2 and is likely to be concomitant with the closure of the binding cleft. It is this process that limits the overall rate at high Pi concentration. The data in FIG. 4B fitted to a hyperbola give 1/K1=2.2 μM and k+2+k−2=267 s^−1 (at 10° C.).

[4] = Stopped-flow dissociation kinetics of Pi from rhodamine-PBP; details: 10° C.
Method: Absorbance spectra were obtained using a Beckman DU640 spectrophotometer. Fluorescence measurements were obtained on a Perkin Elmer LS50B or Cary Eclipse fluorimeter with xenon lamp. Stopped flow experiments were carried out on a HiTech SF61MX apparatus, with a mercury-xenon lamp and HiTech IS-2 software, a monochromator and 4 mm slits on the excitation light (550 nm for rhodamine) and a 570 nm cut-off filter on the emission. The stated concentrations are those in the mixing chamber, unless stated otherwise.
0.25 unit mL^−1 PNPase and 100 μM 7-methylguanosine were present with the wild-type PBP to ensure that it was free of Pi prior to mixing.

[5] = similar titration, reference 25; cited from earlier work

B1: rhodamine-PBP: E. coli PBP Ala17Cys/Ala197Cys (17/197) mutant doubly labelled with 6-IATR (conjugate, UniProt P0AG82 26-346, looked up, variant A17C A197C)
Phosphate-binding protein PstS: EASLTGAGATFPAPVYCKWADTYQKETGNKVNYQGIGSSGGVKQIIANTVDFGASDAPLSDEKLAQEGLFQFPTVIGGVVLAVNIPGLKSGELVLDGKTLGDIYLGKIKKWDDEAIAKLNPGLKLPSQNIAVVRRADGSGTSFVFTSYLAKVNEEWKNNVGTGSTVKWPIGLGGKGNDGIAAFVQRLPGAIGYVEYCYAKQNNLAYTKLISADGKPVSPTEENFANAAKGADWSKTFAQDLTNQKGEDAWPITSTTFILIHKDQKKPEQGTEVLKFFDWAYKTGAKQANDLDYASLPDSVVEQVRAAWKTNIKDSSGKPLY
modifications: doubly labelled with 6-IATR rhodamine
notes: E. coli PBP Ala17Cys/Ala197Cys (17/197) mutant doubly labelled with 6-IATR
fluorescence increase with Pi [1]: 18 fold | fluorescence increase with Pi, maximum / best batch ([1]; emission at 578 nm (λmax), depends on purity of doubly labelled species, listed as A17C-A197C): up to 30 fold | binding capacity for Pi [2]: ~100% | k+2+k−2 (conformation change step 2) ([3]; hyperbola fit, 10° C., 10 mM PIPES pH 7.0): 267 s⁻¹ | Kd ([3]; hyperbola fit, 10° C., 10 mM PIPES pH 7.0, read-out: 1/K1 (binding step 1)): 2200 nM | association kinetics compared with MDCC-PBP ([3]; rhodamine-PBP at 10° C. vs MDCC-PBP at 5° C.): slower than that found with MDCC-PBP at 5 °C | Pi dissociation rate ([4]; best fit exponential, excess 10 μM wild-type PBP): 6.6 s⁻¹ | Kd ([4]; read-out: overall dissociation constant k−2/k+2K1, from association and dissociation kinetics): 60 nM

B2: MDCC-PBP: prior-art MDCC-labelled PBP, label linked via a chiral centre on a succinimide (conjugate, UniProt P0AG82 26-346, looked up)
Phosphate-binding protein PstS: B1 Phosphate-binding protein PstS with C17A, C197A
modifications: MDCC fluorophore label
notes: prior-art MDCC-labelled PBP, label linked via a chiral centre on a succinimide
binding capacity for Pi [5]: 75%

B3: K229C-E302C: E. coli PBP Lys-229/Glu-302 to Cys double mutant, doubly labelled with 6-IATR (conjugate, UniProt P0AG82 26-346, looked up, variant K229C E302C)
Phosphate-binding protein PstS: B1 Phosphate-binding protein PstS with C17A, C197A, K229C, E302C
modifications: 6-IATR labels
notes: E. coli PBP Lys-229/Glu-302 to Cys double mutant, doubly labelled with 6-IATR
binding capacity for Pi [2]: ~100%

B4: RRC2M: here the product of A17C-A197C mutant PBP labelled with the maleimide Rhodamine Red C2 (conjugate, UniProt P0AG82 26-346, looked up, variant A17C A197C)
Phosphate-binding protein PstS: B1 Phosphate-binding protein PstS
modifications: Rhodamine Red C2 maleimide labels
fluorescence increase with Pi [1]: little fluorescence change
